Assay results from paper doi:10.1101/2022.12.21.521430 (bioRxiv, 2022).

Target: Gallus gallus TRPV4 isolated ankyrin repeat domain (residues 135-382) (Gallus gallus, UniProt A0A1D5PXA5 135-382)
Assay: cross-linking

Chain of Gallus gallus TRPV4 isolated ankyrin repeat domain (residues 135-382) (A0A1D5PXA5 135-382): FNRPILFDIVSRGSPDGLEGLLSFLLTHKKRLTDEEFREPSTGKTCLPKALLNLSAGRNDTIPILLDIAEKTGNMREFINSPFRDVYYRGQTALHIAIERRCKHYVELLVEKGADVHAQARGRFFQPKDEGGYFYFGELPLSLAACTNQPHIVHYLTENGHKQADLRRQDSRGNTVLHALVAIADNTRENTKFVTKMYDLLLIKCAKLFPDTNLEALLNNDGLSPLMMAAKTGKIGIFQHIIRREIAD

B1: Gallus gallus TRPV4 isolated intrinsically disordered region (residues 2-134) (domain or fragment, UniProt A0A1D5PXA5 2-134, looked up)
chain: ADPEDPRDAGDVLGDDSFPLSSLANLFEVEDTPSPAEPSRGPPGAVDGKQNLRMKFHGAFRKGPPKPMELLESTIYESSVVPAPKKAPMDSLFDYGTYRQHPSENKRWRRRVVEKPVAGTKGPAPNPPPILKV
Question: Does B1 bind?
Answer: binds
